Experimental findings from patent EP4810521A1, “ANTI-EGFR AND -HER3 BISPECIFIC ANTIBODY-DRUG CONJUGATE AND USE THEREOF” (priority 2023, dated 2025) are described below.

In assay [1] the test system is NUGC-4 tumor-bearing mouse model. The assay is described as follows: Anti-tumor effect in NUGC-4 tumor-bearing mouse model. It is filed as in vivo, BALB/c-NUDE mice. As to conditions: NUGC-4, 10 mg/kg single dose intraperitoneal injection, day 32. An excerpt:
In the present experiment, the BALB/c NUDE mice inoculated with NUGC-4 cells were used for determining the anti-tumor effect of the EGFR/HER3-ADCs.
The female BALB/c-NUDE mice were purchased from Beijing Vital River Laboratory Animal Technology Co., Ltd, with the grade of SPF, the quality control department is Beijing Vital River Laboratory Animal Technology Co., Ltd, and the certificate number was NO.110011230103807533. The mice were domesticated for 3 days after arrival, and then the study began.
NUGC-4 cells were purchased from NIBIOHN (CAT #: JCRB0834) and routinely subcultured in strict accordance with the instructions for subsequent in vivo experiments. The cells were collected by centrifugation, resuspended in sterile PBS and adjusted to a cell density of 20×10^6 cells/ml. A NUGC-4 tumor-bearing mouse model was established by subcutaneous inoculation of 0.2 ml of cell suspension into the right abdominal region of BALB/c-NUDE mice on day 0.
Tumor volume of each mouse was measured 13 days after tumor cell inoculation, the mice with tumor volumes about 200 mm^3 were selected and grouped on average according to their tumor volume (7 mice per group). […] Administrations were conducted on day 13 after inoculation respectively, and the tumor volume and body weight of mice were monitored twice a week. […] Measurement of tumor volume: the maximum long axis (L) and maximum wide axis (W) of the tumor were measured using a vernier caliper, and the tumor volume was calculated as follows: V=L×W^2/2. Body weight was measured using an electronic balance. Table 3. Experimental design

The target in the next assay is T1, human HER3 (human, UniProt P21860 20-643, limits assumed).
T1 construct: Coated at 0.25 ug/mL; also called HER3 antigen; ErbB3
The assay is described as follows: ELISA, HER3 antigen coated on plate, anti-human IgG Fc-HRP detection. A general note: An ELISA detects its analyte on a solid surface through an enzyme-linked reagent.

In the next assay the target is T2, human EGFR (human, UniProt P00533 25-645, limits assumed).
T2 construct: Coated at 0.25 ug/mL; also called EGFR antigen
The assay is described as follows: ELISA, EGFR antigen coated on plate, anti-human IgG Fc-HRP detection.

Assay [2] concerns human breast cancer cells MDA-MB-453. The assay is described as follows: In vitro cell killing assay (CTG). The following applies: MDA-MB-453, 5 days, Example 13. It is filed as cell-based.
Assay [3] relates to human breast cancer cells MCF7. Nature of the assay: In vitro cell killing assay (CTG). It is filed as cell-based. The protocol: After 2-3 passages of the resurrected MCF7 cells, the culture medium was poured out firstly, rinsed with 10 mL PBS once, then the cells were digested with 4mL trypsin, the culture medium was terminated before centrifuged at 400xg for 3min, the supernatant was discarded, and the culture medium was further resuspended for counting. The cell density was adjusted to 3E4/mL, 50 µL of which per well was added into a round bottom low adsorption 96-well plate. The antibody to be detected was diluted in a gradient manner, then 50 µL of which per well was added into the corresponding cells, cultured at 37 °C for 5 days, then the 96-well plate was taken out, the plate was balanced to room temperature, 100 µL of CTG detection solution was added into each well, placed at a shaker at 300 rpm for 20 min, 100 µL of which was absorbed and placed into the white bottom 96-well plate, and the luminescence value was detected by using a multifunctional microplate reader.

By TGI is commonly meant how far tumour growth fell short of that in controls. The low end stands for little slowing of growth, the high end for much slowing of growth. In assay [1], Patritumab-DXd [reference compound] gave a TGI of 51% and a Tumor volume of 636 mm^3.

B1: Duligo-LC1-NT3 (bispecific antibody, human IgG1, lambda, L234A L235A, V domains shown)
VH: EVQLVESGGGLVQPGGSLRLSCAASGFTLSGDWIHWVRQAPGKGLEWVGEISAAGGYTDYADSVKGRFTISADTSKNTAYLQMNSLRAEDTAVYYCARESRVSFEAAMDYWGQGTLVTVSS
VL: DIQMTQSPSSLSASVGDRVTITCRASQNIATDVAWYQQKPGKAPKLLIYSASFLYSGVPSRFSGSGSGTDFTLTISSLQPEDFATYYCQQSEPEPYTFGQGTKVEIKG
notes: also called Duoligo-LC1-NT3; duoligo-LC1-NT3
The term Kd denotes the constant that tells how readily two partners part at equilibrium. Low readings indicate higher affinity, high ones lower affinity. For the molecule B1, the Kd with human HER3 is 0.0257 nM; in the assay with human EGFR, 0.0352 nM. Moreover, the “fold decrease in Kd against SIB001-DXd” value in the assay with human EGFR is roughly 2.5 fold.

B2: Duligo-DXd (conjugate, chains of the INN, looked up)
VH: EVQLVESGGGLVQPGGSLRLSCAASGFTLSGDWIHWVRQAPGKGLEWVGEISAAGGYTDYADSVKGRFTISADTSKNTAYLQMNSLRAEDTAVYYCARESRVSFEAAMDYWGQGTLVTVSS
VL: DIQMTQSPSSLSASVGDRVTITCRASQNIATDVAWYQQKPGKAPKLLIYSASFLYSGVPSRFSGSGSGTDFTLTISSLQPEDFATYYCQQSEPEPYTFGQGTKVEIK
modifications: DXd payload
A word on the IC50: it is the concentration needed to halve the response being measured. A lower IC50 goes with greater potency in that assay. In the case of B2, in assay [2], the killing effect result is given as “significantly stronger killing effect than SIB001-DXd”. The molecule also displayed an IC50 in assay [3] (MCF7, 5 days) of 0.049 nM. Further, in assay [3] (MCF7, relative to SIB001-DXd), the “reduction in IC50” value is listed as “approximately 250 fold”. For the same molecule, in assay [1], the TGI was found to be 75% and the Tumor volume was determined as 414 mm^3.
